The source of these data is article PMC8826744 (Microbiology Spectrum, 2022).

The test deals with T1, IgG4-Fc tagged rFOLR1 (Homo sapiens (assumed), UniProt P15328).
T1 construct: also called recombinant IgG4-Fc FOLR1; folate receptor alpha-1; source: CHO-S, transfected, purified (protein A)
Briefly: ELISA; IgG4-Fc tagged rFOLR1 (2 ug/mL) coated on 96-well plates overnight; antibodies 50 nM to 0.048 nM, 1 h at 37 C; detected with HRP anti-human IgG1. The settings on record: both partners purified. In general terms: An ELISA detects its analyte on a solid surface through an enzyme-linked reagent.

B1: farletuzumab-IgG1 (antibody, V domains shown)
VH: EVQLVESGGGVVQPGRSLRLSCSASGFTFSGYGLSWVRQAPGKGLEWVAMISSGGSYTYYADSVKGRFAISRDNAKNTLFLQMDSLRPEDTGVYFCARHGDDPAWFAYWGQGTPVTVSS
VL: DIQLTQSPSSLSASVGDRVTITCSVSSSISSNNLHWYQQKPGKAPKPWIYGTSNLASGVPSRFSGSGSGTDYTFTISSLQPEDIATYYCQQWSSYPYMYTFGQGTKVEIK
notes: IgG1; source: CHO-S, transfected, purified (protein A)
On to B1, for which the binding result is reported as “binds”.

B2: farletuzumab-FuG1 (antibody, V domains shown)
VH: B1 VH
VL: B1 VL
notes: also called farletuzumab-FuGi
Consider B2, for which the binding result is “binds”.
